Patent US20240382586A1 (TAKIS S R L, published 2024)
Substitutions are numbered along the chain they refer to.

B1: humanised 9-8F2-B11 (VH3VL3) (antibody, V domains shown)
VH: QVQLVQSGAEVKKPGASVKVSCKASGFNIKETYVHWVRQAPGQGLEWMGRIDPAIGDSEYAQKFQGRVTMTRDTSISTAYMELSRLRSDDTAVYYCARTWGPFFDFWGQGTLVTVSS
VL: DIVMTQTPLSLSVTPGQPASISCKSSQSLLHSHGNTFLHWYLQKPGQSPQVLIYKVSSRFSGVPDRFSGSGSGTDFTLKISRVEAEDVGVYYCSQSTHVPYTFGQGTKLEIK
notes: also called 9-8F2-B11 humanised
B2: 9-2H7-D7 (mouse) (antibody, V domains shown)
VH: EVQLQQSGPELVKPGASVTISCKTSGYTFTEYTMYWVKQSHGKSLEWIGGINPYIGDTSYNQNFKGKATLTVDKSSSTAYMELRSLTSEDSAVYYCARDGYPDYSAMDFWGQGTSVTVSS
VL: DIVMSQSPSSLAVSVGEKVTMNCKSSQNLLYSSNQKNYLAWYQQKPGQSPKLLIYWASTRESGVPDRFTGSGSGTDFTLTISSVKAEDLAVYSCQQYYTYPWTFGGGTKLEIK
B3: 9-2H7-D7 chimera (antibody, V domains shown)
VH: B2 VH
VL: B2 VL
B4: 9-7A4-C2 (mouse) (antibody, V domains shown)
VH: EVQLQQSGPELVKPGASVKISCKTSGYTFTEYTMYWVKQSHGKSLEWIGGINPNNGDSSYIQKFKGKATLTVDESSSTAYMELRSLTSEDSAVYYCARDGYPNSYAMDYWGQGTSVTVSS
VL: B2 VL with E17D, N22S, N28S, S33T, S82G, K85R, A86P, S93Y, T99S
B5: 9-8F2-B11 (mouse) (antibody, V domains shown)
VH: EVQLQQSGAELVKPGASVKLSCTASGFNIKETYVHWVKQRPEQGLEWIGRIDPAIGDSEYDPKFQGKATVTADTSSNTAYLQLSRLTSEDTAVYYCARTWGPFFDFWGQGTTLTVSS
VL: DVVMTQTPLSLPVSLGDQASISCRSSQSLVHSHGNTFLHWYLQKPGQSPKVLIYKVSSRFSGVPDRFSGSGAGTDFTLKISRVEAEDLGVYFCSQSTHVPYTFGGGTKLEIK

Assays:
[1] = target: SARS-CoV-2 spike, variant N501Y (B.1.1.7, British) (on virus or pseudovirus) (SARS-CoV-2, UniProt P0DTC2 14-1273); experiment: cell-based or functional assay
[2] = target: SARS-CoV-2 spike, African variant B.1.351 (on pseudovirus) (SARS-CoV-2); experiment: cell-based or functional assay

| Binder | IC50 (ng/ml), pseudovirus neutralisation, British B1.1.7 [1] | IC50 (ng/ml), pseudovirus neutralisation, African B1.1.351 [2] |
| --- | --- | --- |
| B1 | 11 ng/mL | 12000 ng/mL |
| B2 | 40 ng/mL |  |
| B3 | 11 ng/mL | 21 ng/mL |
| B4 | 18 ng/mL | 20 ng/mL |
| B5 | 7.7 ng/mL |  |
